Reference: publication PMC3950713
Residue numbers refer to the chain shown, from its start.

Key:
Test in all cases: MST
HpDprA(5-217)Y11E = target: T1, HpDprA(5-217)Y11E (Helicobacter pylori 26695, UniProt O25100 5-217, Y11E)
T1 sequence: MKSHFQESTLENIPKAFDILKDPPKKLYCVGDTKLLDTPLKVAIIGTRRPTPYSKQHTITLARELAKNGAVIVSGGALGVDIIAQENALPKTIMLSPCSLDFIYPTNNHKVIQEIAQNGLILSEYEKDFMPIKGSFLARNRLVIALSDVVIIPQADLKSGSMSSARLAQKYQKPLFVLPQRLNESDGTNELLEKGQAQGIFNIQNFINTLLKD

HpDprA(5-217)K137E = target: T2, HpDprA(5-217)K137E (Helicobacter pylori 26695, UniProt O25100 5-217, K137E)
T2 sequence: T1 sequence with E7Y, K133E

HpDprA(5-217)R52E/R143E = target: T3, HpDprA(5-217)R52E/R143E (Helicobacter pylori 26695, UniProt O25100 5-217, R52E;R143E)
T3 sequence: T1 sequence with E7Y, R48E, R139E

HpDprA(5-217)R52E = target: T4, HpDprA(5-217)R52E (Helicobacter pylori 26695, UniProt O25100 5-217, R52E)
T4 sequence: T1 sequence with E7Y, R48E

HpDprA(5-217)R52E/K137E = target: T5, HpDprA(5-217)R52E/K137E (Helicobacter pylori 26695, UniProt O25100 5-217, R52E;K137E)
T5 sequence: T1 sequence with E7Y, R48E, K133E

HpDprA full-length = target: T6, HpDprA full-length (Helicobacter pylori 26695, UniProt O25100 1-270)
T6 sequence: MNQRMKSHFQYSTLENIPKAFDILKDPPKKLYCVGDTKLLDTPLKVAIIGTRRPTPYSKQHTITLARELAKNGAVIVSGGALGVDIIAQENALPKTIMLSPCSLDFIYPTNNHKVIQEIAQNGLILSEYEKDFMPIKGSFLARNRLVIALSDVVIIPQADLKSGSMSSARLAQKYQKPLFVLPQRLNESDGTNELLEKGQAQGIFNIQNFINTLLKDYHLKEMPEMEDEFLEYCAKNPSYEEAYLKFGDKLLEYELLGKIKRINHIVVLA

HpDprA(5-217)R143E = target: T7, HpDprA(5-217)R143E (Helicobacter pylori 26695, UniProt O25100 5-217, R143E)
T7 sequence: T1 sequence with E7Y, R139E

B1: dT35 (ssDNA)
DNA: TTTTTTTTTTTTTTTTTTTTTTTTTTTTTTTTTTT
Kd (HpDprA(5-217)Y11E): 0.0559 ± 0.00182 µM
Kd (HpDprA(5-217)K137E): 7.22 ± 0.216 µM
binding result (HpDprA(5-217)R52E/R143E): no binding
Kd (HpDprA(5-217)R52E): 9.95 ± 0.367 µM
binding result (HpDprA(5-217)R52E/K137E): no binding
Kd (HpDprA full-length): 0.00226 ± 0.000167 µM
Kd (HpDprA(5-217)R143E): 5.47 ± 0.246 µM
